This data set deals with chk2, endogenous (HEK 293 and MCF-7 cell extracts).
Sequence of chk2, endogenous (HEK 293 and MCF-7 cell extracts) (chain, as listed by the source): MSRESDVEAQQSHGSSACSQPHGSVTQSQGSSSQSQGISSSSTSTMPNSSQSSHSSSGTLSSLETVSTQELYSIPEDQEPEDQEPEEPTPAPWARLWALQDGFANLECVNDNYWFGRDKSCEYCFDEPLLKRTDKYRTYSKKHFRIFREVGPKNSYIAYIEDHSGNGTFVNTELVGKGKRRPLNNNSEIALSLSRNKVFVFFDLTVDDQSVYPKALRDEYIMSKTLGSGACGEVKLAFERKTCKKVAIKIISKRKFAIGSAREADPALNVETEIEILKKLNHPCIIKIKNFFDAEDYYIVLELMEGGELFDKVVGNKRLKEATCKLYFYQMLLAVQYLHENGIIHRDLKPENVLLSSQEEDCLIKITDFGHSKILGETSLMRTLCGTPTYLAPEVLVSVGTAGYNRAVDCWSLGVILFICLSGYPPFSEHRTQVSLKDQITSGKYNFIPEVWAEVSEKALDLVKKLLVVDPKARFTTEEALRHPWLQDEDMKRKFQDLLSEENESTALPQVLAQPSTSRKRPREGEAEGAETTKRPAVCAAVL

Take EDD protein, full length (aa 1-2799): the “CHK2 kinase activity towards a GST-cdc25C substrate post-IR in the presence and absence of EDD” value is “activation of CHK2 was delayed in cells lacking EDD and these cells were impaired in their ability to reach maximal CHK2 kinase activity”; the “DNA damage-induced phosphorylation of CHK2 on T68 after EDD depletion by RNA interference” value was “considerably diminished compared to control cells”.
